Patent US20170183390A1 (published 2017)
Ends that are not written are not given here. * marks the point of attachment. FITC = O=C1OC2(c3ccc(O)cc3Oc3cc(O)ccc32)c2ccc(NC(=S)*)cc21

Key:
[1] = target: T1, soluble αVβ3 headpiece, disulfide-linked (αV headpiece residues 1-594 with M400C); β3 headpiece residues 1-472 … (UniProt P06756 31-624; P05106 27-498, Interchain disulfide between αV Cys-400 and β3 Cys-267.); assay: fluorescence anisotropy competition
T1 alpha: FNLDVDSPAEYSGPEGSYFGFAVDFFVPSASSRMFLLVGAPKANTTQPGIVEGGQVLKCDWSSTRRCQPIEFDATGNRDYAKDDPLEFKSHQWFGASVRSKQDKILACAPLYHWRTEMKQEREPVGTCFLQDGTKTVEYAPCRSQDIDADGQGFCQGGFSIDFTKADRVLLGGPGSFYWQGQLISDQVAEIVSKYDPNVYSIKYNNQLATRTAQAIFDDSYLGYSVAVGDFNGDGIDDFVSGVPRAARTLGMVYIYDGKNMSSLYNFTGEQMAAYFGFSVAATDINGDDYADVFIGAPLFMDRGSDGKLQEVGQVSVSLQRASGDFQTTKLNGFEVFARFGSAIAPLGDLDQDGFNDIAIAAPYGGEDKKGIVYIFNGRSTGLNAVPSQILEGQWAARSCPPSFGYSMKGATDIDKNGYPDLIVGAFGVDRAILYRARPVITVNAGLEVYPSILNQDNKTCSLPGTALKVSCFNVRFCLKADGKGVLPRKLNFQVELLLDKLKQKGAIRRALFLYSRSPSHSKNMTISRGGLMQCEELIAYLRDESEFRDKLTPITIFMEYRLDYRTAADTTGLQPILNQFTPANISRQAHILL
T1 beta: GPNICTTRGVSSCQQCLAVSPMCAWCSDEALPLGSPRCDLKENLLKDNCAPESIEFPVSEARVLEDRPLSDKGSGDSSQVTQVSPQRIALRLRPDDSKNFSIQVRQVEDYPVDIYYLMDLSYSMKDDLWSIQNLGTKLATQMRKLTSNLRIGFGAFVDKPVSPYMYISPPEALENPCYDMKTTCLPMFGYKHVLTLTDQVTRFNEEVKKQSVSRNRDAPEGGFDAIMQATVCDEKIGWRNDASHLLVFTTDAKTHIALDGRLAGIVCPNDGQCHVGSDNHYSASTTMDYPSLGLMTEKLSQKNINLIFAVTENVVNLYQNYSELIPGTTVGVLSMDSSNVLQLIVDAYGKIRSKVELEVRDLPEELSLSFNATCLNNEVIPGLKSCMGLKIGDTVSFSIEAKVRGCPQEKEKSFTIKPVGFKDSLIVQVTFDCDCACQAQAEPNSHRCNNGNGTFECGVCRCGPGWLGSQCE

[2] = target: T2, soluble αVβ6 headpiece, disulfide-linked (αV headpiece residues 1-594 with M400C); β6 headpiece residues 1-474 … (human, UniProt P06756 31-624; P18564 18-491, Interchain disulfide between αV Cys-400 and β6 Cys-270.); assay: fluorescence anisotropy, competition with FITC-GRGDLGRL on the αVβ6 headpiece
T2 construct: The 3C site, ACID/BASE coiled-coils, Strep-II tag and His tags were cut off with 3C protease; The two chains are linked by the introduced disulfide bond; also called modified integrin αVβ6 headpiece dimer; full headpiece
Procedure: (§1) Ligands bind to the integrin headpiece, which contains the α-subunit β-propeller domain and thigh domain, and the β-subunit βI, hybrid, PSI, and EGF1 domain. […] (SEQ ID NO: 68), peptide affinity for the αVβ₆ and αVβ₃ headpiece was measured with fluorescence anisotropy.
(§2) Fluorescence anisotropy. […] Binding affinities were calculated as described in Ref. 23.

[3] = target: T3, soluble αVβ6 headpiece, disulfide-linked (αV headpiece residues 1-594 with M400C); β6 headpiece residues 1-474 … (UniProt P06756 31-624; P18564 18-491, Interchain disulfide between αV Cys-400 and β6 Cys-270.); assay: fluorescence anisotropy competition
T3 alpha: T1 alpha
T3 beta: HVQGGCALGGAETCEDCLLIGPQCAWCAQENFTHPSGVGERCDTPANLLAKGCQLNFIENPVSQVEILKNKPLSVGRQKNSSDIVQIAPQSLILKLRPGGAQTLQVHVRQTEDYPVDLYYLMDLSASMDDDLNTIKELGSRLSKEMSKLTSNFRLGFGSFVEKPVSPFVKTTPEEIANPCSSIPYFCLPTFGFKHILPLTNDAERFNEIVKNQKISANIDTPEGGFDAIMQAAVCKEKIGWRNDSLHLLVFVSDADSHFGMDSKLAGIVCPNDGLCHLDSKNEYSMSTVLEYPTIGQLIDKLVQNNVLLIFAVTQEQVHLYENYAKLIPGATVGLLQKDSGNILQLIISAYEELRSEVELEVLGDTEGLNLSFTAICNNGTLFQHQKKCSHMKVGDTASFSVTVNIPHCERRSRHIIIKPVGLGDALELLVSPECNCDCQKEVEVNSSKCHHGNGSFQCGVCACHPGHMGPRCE

[4] = target: T4, soluble αVβ3 headpiece, disulfide-linked (αV headpiece residues 1-594 with M400C); β3 headpiece residues 1-472 … (human, UniProt P06756 31-624; P05106 27-498, Interchain disulfide between αV Cys-400 and β3 Cys-267.); assay: fluorescence anisotropy, competition with FITC-GRGDLGRL on the αVβ3 headpiece
T4 construct: tags and coiled-coils cut off with 3C protease
Procedure: as §1, §2

[5] = target: T2, soluble αVβ6 headpiece, …; assay: crystal structure, peptide soaked into αVβ6 headpiece crystals
Procedure: αVβ₆ headpiece crystallization, data collection and structure determination. αVβ₆ crystals in hanging drops were formed with 3 mg/ml αVβ₆ headpiece in 20 mM Tris-HCl pH 8.0, 150 mM NaCl, 1 mM CaCl₂ and 1 mM MgCl₂ buffer (1 μl) and 1 μl reservoir solution of 20% PEG 4000, 0.1 M sodium cacodylate pH 6.0, 0.2 M ammonium sulfate. Identical vol:vol mixture of the protein and crystallization buffers yields a pH of 6.5. […] Immediately prior to flash freezing in liquid N₂, crystals were dipped in reservoir solution containing 25% glycerol with or without peptide, MgCl₂, and CaCl₂ each at 0.25 mM.

[6] = target: T2, soluble αVβ6 headpiece, …; assay: fluorescence anisotropy, saturation binding, Mn2+/Ca2+
Procedure: (§3) (SEQ ID NO: 68), was synthesized. […] By competition binding assay, the affinities of different ligands were measured.
as §2

[7] = target: T2, soluble αVβ6 headpiece, …; assay: fluorescence anisotropy, saturation binding, 1 mM Mg2+/Ca2+
Procedure: as §3, §2

[8] = target: T3, soluble αVβ6 headpiece, …; assay: fluorescence anisotropy; pH 5.0
[9] = target: T3, soluble αVβ6 headpiece, …; assay: fluorescence anisotropy; pH 6.0
[10] = target: T3, soluble αVβ6 headpiece, …; assay: fluorescence anisotropy; pH 7.0
[11] = target: T3, soluble αVβ6 headpiece, …; assay: fluorescence anisotropy; pH 8.0
[12] = target: T3, soluble αVβ6 headpiece, …; assay: fluorescence anisotropy; pH 9.0

TSGDQKTIK (also called pro-TGF-β2 peptide) [homologous peptide from pro-TGF-β2, which has SGDQ in place of RGDL of pro-TGF-β1] was tested. Which Kd [1] did it give?
Its Kd is 4800 nM.

And the Kd [2]?
Its Kd is 8500 nM.

What about the “fold lower affinity than the pro-TGF-β1 and pro-TGF-β3 nonapeptides” value [2] of the same binder?
The value was 1000 fold.

For HGRGDLGRLK, which Kd [3] is on record?
The Kd was 20.3 nM.

For HGRGDLG, which Kd [3] is on record?
The Kd was 691 nM.

B1: nonapeptide containing RGD from pro-TGF-β3 (GRGDLGRLK) (peptide)
peptide: GRGDLGRLK
notes: also called pro-TGF-β3 peptide; TGF-β3 nonapeptide
How did the Kd [1] turn out when B1 was run?
Its Kd is 2300 nM.

And the “fold lower affinity than for αVβ6” value [4]?
The value was 1000 fold.

What about the Kd [2] of the same binder?
Its Kd is 8.5 nM.

For RRGDLATIH (also called pro-TGF-β1 peptide) [nonapeptide containing RGD from pro-TGF-β1], which Kd [2] is on record?
Its Kd is 10.3 nM.

For HGRGDL, which Kd [3] is on record?
The Kd was 966 nM.

B2: pro-TGF-β3 undecapeptide Ac-HGRGDLGRLKK-NH2 (peptide)
peptide: Ac-HGRGDLGRLKK-NH2
notes: also called Pro-TGF-β3 peptide; TGF-β3 peptide
Which results are given for B2?
binding result [5]: binds; Kd [3]: 7.3 nM

For HGRGD, which Kd [3] is on record?
Its Kd is 8900 nM.

Which Kd [3] does the source give for HGRGDLGR here?
Its Kd is 296 nM.

HGRGDLGRL was tested. Which Kd [3] did it give?
Its Kd is 28.4 nM.

Which Kd [6] does the source give for {FITC}-GRGDLGRL (also called the probe) [FITC-GRGDLGRL (FITC-pro-TGF-β3 peptide, fluorescence probe)] here?
The Kd was 10 nM.

And the Kd [7]?
Its Kd is 100 nM.

And the Kd [8]?
The Kd was 3810 nM.

And the Kd [9]?
Its Kd is 2000 nM.

And the Kd [10]?
Its Kd is 212 nM.

And the Kd [11]?
The Kd was 84.6 nM.

What about the Kd [12] of the same binder?
The Kd was 27.4 nM.
